According to US20260008856A1, “METHODS OF TREATING DISEASE USING ANTI-IL1RAP ANTIBODIES AND ANTIBODY DRUG CONJUGATES” (Bluefin Biomedicine, Inc., priority 2022, published 2026):

Test system: TARC level in PBMCs stimulated with HDM and IL-13
Assay: TARC level in PBMCs treated by HDM and IL-13
Type: cell-based, human
Conditions: HDM 10 ug/ml, IL-13 0.5 nM; tralokinumab 10 to 0.16 ug/ml; BFB759 1 ug/ml in combination
Description: 0.2 million PBMCs in 100 ul medium (RPMI1640, 10% heat-inactivated FBS) were added to each well of 96 well cell culture plate. BFB759 at multiple concentrations in 50 ul medium was added to the wells. The cells were incubated in the incubator for 45 min. Then, 50 ul HDM solution (final concentration 10 ug/ml) was added to the wells. After 7 days incubation, the supernatant was transferred to a new 96 well plate, and used in TARC ELISA right away, or frozen in −80 C freezer for ELISA later. For the combination studies of BFB759 with other drugs, the single agent or combination of drugs were added to the PBMCs, incubated for 45 min, then HDM solution, or HDM and IL-4 or IL-13 solution were added to the wells. The assay was incubated for 7 days, and the supernatant was harvested for TARC ELISA.
In the data shown in FIG. 16, HDM was used at 10 ug/ml, IL-13 was used at 0.5 nM, BFB759 was used at 1 ug/ml, tralokinumab was titrated from 10 ug/ml to 0.16 ug/ml (4 fold dilution, 4 series). Data shown are mean±s.d.

B1: tralokinumab: IL-13 neutralizing antibody, produced by Bluefin Biomedicine according to the published protein sequence (antibody, chains of the INN, looked up, V domains shown)
VH: QVQLVQSGAEVKKPGASVKVSCKASGYTFTNYGLSWVRQAPGQGLEWMGWISANNGDTNYGQEFQGRVTMTTDTSTSTAYMELRSLRSDDTAVYYCARDSSSSWARWFFDLWGRGTLVTVSS
VL: SYVLTQPPSVSVAPGKTARITCGGNIIGSKLVHWYQQKPGQAPVLVIYDDGDRPSGIPERFSGSNSGNTATLTISRVEAGDEADYYCQVWDTGSDPVVFGGGTKLTVL
inhibition of TARC level in HDM and IL-13 stimulated cells: dose dependent inhibition
